Results on three molecules are retold here after US20230194525A1, “PEPTIDE BASED PROBES FOR THE DETECTION OF SARS-COV-2” (priority 2021, published 2023).

B1: {Lys(DABSYL)}QELAAIEWELAANERELAAIEGCFNKTFLDKFNHEAEDLFYQSSLARIAALKYKNAALKKKIA{LYS(FITC)} (peptide)
chain: K(DABSYL)QELAAIEWELAANERELAAIEGCFNKTFLDKFNHEAEDLFYQSSLARIAALKYKNAALKKKIAK(FITC)
B2: {Lys(DABSYL)}QELAAIEWELAANERELAAIEGCFNKTFLDKFNHEAEDLFYQSSLARIAALKYKNAALK{LYS(FITC)} (peptide)
chain: K(DABSYL)QELAAIEWELAANERELAAIEGCFNKTFLDKFNHEAEDLFYQSSLARIAALKYKNAALKK(FITC)
B3: {Lys(DABSYL)}QELAAIEWELAANERELAAIEGCFNKTFLDKFNHEAEDLFYQSSLARIAALKYKNAALKKKIAALKQ{LYS(FITC)} (peptide)
chain: K(DABSYL)QELAAIEWELAANERELAAIEGCFNKTFLDKFNHEAEDLFYQSSLARIAALKYKNAALKKKIAALKQK(FITC)

The star is where a group is joined. FITC = O=C1OC2(c3ccc(O)cc3Oc3cc(O)ccc32)c2ccc(NC(=S)*)cc21; DABSYL = CN(C)c1ccc(/N=N/c2ccc(S(=O)(=O)*)cc2)cc1

This test has as its target L subunits (L1, L2, L3). The test is described as follows: Titration of R units against L subunits, fluorescence intensity after 2 hours. As to conditions: R 400 nM to 100 pM against 50 nM L in 1×PBS, pH 7.4, 20-25° C., only rank order given. The class given is binding.
Protocol: Residual fluorescence can be due to remaining unreacted L subunits.
In FIG. 4B, R units (400 nM to 100 pM in 1×PBS, pH 7.4) are titrated against 50 nM of L subunits in 1×PBS, pH 7.4 at 20-25° C. and the fluorescence intensities measured after 2 hours. […] All the measurements were performed in triplicates (n=3) and the error bar represents the standard deviation of the data. Statistical analysis was performed using Unpaired t test in GraphPad software and the calculated P is represented as follows: **P<0.01.
On to B1, for which the “affinity of R subunits toward L subunits (Kd values), preferential order” value (“affinity of R subunits toward L subunits” below) is given as “RL3>RL1>RL2”.
Regarding B2, the “affinity of R subunits toward L subunits” value was “RL3>RL1>RL2”.
B3: the “affinity of R subunits toward L subunits” value is “RL3>RL1>RL2”.
